{"source": "patent US20170212130A1", "about": "(ROCKEFELLER UNIVERSITY, published 2017)", "binders": {"B1": {"name": "LaG16-LaG2 fusion with a flexible glycine-rich linker (G4S) (other)", "chain": "MAQVQLVESGGRLVQAGDSLRLSCAASGRTFSTSAMAWFRQAPGREREFVAAITWTVGNTILGDSVKGRFTISRDRAKNTVDLQMDNLEPEDTAVYYCSARSRGYVLSVLRSVDSYDYWGQGTQVTVSGGGGSMAQVQLVESGGGLVQAGGSLRLSCAASGRTFSNYAMGWFRQAPGKEREFVAAISWTGVSTYYADSVKGRFTISRDNDKNTVYVQMNSLIPEDTAIYYCAAVRARSFSDTYSRVNEYDYWGQGTQVTV"}, "B2": {"name": "LaG-24 (VHH)", "VHH": "DVQLVESGGGLVQPGGSLRLSCAASGEIASIIAIGWYRQAPGKQRESVALITRSGMITYGDSAQGRFTISRDDAKNTVYLHMDDLVPEDTAVYYCNAKKVSFGDYWGQGTQVTVS"}, "B3": {"name": "LaG-9 (VHH)", "VHH": "DVQLVESGGGLVQAGGSLRLSCAASGRTFSTSAMGWFRQAPGKEREFVARITWSAGYTAYSDSVKGRFTISRDKAKNTVYLQMNSLKPEDTAVYYCASRSAGYSSSLTRREDYAYWGQGTQVTVS"}, "B4": {"name": "LaG-2 (VHH)", "VHH": "QVQLVESGGGLVQAGGSLRLSCAASGRTFSNYAMGWFRQAPGKEREFVAAISWTGVSTYYADSVKGRFTISRDNDKNTVYVQMNSLIPEDTAIYYCAAVRARSFSDTYSRVNEYDYWGQGTQVTV", "notes": "that range is inconsistent in itself; not shown: PreScission Protease cleavage site and C-terminal 6xHis tag"}, "B5": {"name": "LaG-41 (VHH)", "VHH": "DVQLVESGGGLVQAGGSLRLSCAASGPTGAMAWFRQAPGKEREFVGGISGSETDTYYVDSVKGRFTVDRDNVKNTVYLQMNSLKPEDTAVYYCAARRRITLFTSRTDYDFWGRGTQVTV"}}, "key": {"[1]": {"target": "T1, GFP-His6 (eGFP) (Aequorea victoria, UniProt P42212 2-238 = GFP)", "assay": "SPR, GFP immobilized"}, "[2]": {"target": "T1, GFP-His6 (eGFP)", "assay": "SPR, GFP immobilized; reference LaG-16 or LaG-2 alone"}, "[3]": {"target": "T2, GFP-His6 (eGFP) (Aequorea victoria, UniProt P42212 2-238 = GFP)", "T2 construct": "SPR and bead assays speak only of recombinant GFP or eGFP; also called recombinant GFP; A. victoria (Av) GFP", "assay": "SPR, GFP immobilized"}, "[4]": {"target": "T3, GFPuv (Aequorea victoria, UniProt P42212 1-229 = GFP, limits assumed)", "T3 construct": "15N-labeled for NMR; also called GFPuv variant; 15N-labeled GFPuv", "assay": "NMR, 15N-1H HSQC of 15N-GFPuv with 1-1.2 molar excess of LaG"}, "[5]": {"target": "T2, GFP-His6 (eGFP)", "assay": "label under gel lane; legend: in vitro Kd for GFP by SPR"}, "[6]": {"target": "T2, GFP-His6 (eGFP)", "assay": "label under gel lane; legend: in vitro Kd for GFP by SPR", "remark": "listed apart in the source"}, "[7]": {"target": "T2, GFP-His6 (eGFP)", "assay": "SPR, GFP immobilized, Langmuir fit; no unit printed [continued]"}, "[8]": {"target": "T4, DsRed (Discosoma sp., UniProt Q9U6Y8 1-225)", "T4 construct": "Recombinant fluorescent protein; construct not described; also called standard DsRed; DsRed from Discosoma (Ds)", "T4 sequence (Q9U6Y8 whole entry)": "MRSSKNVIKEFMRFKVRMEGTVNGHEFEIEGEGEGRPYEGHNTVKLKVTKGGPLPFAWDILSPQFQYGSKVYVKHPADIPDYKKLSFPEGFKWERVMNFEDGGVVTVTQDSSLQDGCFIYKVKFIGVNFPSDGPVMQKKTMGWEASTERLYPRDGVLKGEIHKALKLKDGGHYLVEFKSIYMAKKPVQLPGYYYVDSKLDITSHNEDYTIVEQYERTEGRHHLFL", "assay": "bead binding: nanobody-Dynabeads + fluorescent protein, eluate on SDS-PAGE"}, "[9]": {"target": "T2, GFP-His6 (eGFP)", "assay": "SPR, GFP immobilized, Langmuir fit; unit inferred"}, "[10]": {"target": "T2, GFP-His6 (eGFP)", "assay": "bead binding assay (footnote 1)"}, "[11]": {"target": "T2, GFP-His6 (eGFP)", "assay": "equilibrium bead binding: LaG-Dynabeads + 0.8-400 nM GFP, Coomassie band density fit"}, "[12]": {"target": "T2, GFP-His6 (eGFP)", "assay": "method not named in the sentence (in vitro Kd by SPR per FIG. 3 legend)"}}}
{"binder": "B1", "values": [{"measurement": "Kd", "setting": "[1]", "result": 0.036, "unit": "nM"}, {"measurement": "fold lower Kd than either LaG alone", "setting": "[2]", "result": "~20", "unit": "fold"}]}
{"binder": "B2", "values": [{"measurement": "Kd", "setting": "[3]", "result": 41, "unit": "nM"}, {"measurement": "binding result", "setting": "[4]", "result": "no binding"}, {"measurement": "Kd", "setting": "[5]", "result": 35, "unit": "nM"}, {"measurement": "Kd", "setting": "[6]", "result": 35, "unit": "nM"}, {"measurement": "Kd", "setting": "[7]", "result": 41, "unit": "nM"}, {"measurement": "binding result", "setting": "[8]", "result": "no binding"}]}
{"binder": "B3", "values": [{"measurement": "Kd", "setting": "[3]", "result": 3.5, "unit": "nM"}, {"measurement": "Kd", "setting": "[9]", "result": 3.5, "unit": "nM"}, {"measurement": "Kd", "setting": "[5]", "result": 3.5, "unit": "nM"}, {"measurement": "Kd", "setting": "[6]", "result": 3.5, "unit": "nM"}, {"measurement": "binding result", "setting": "[8]", "result": "no binding"}]}
{"binder": "B4", "values": [{"measurement": "Kd", "setting": "[3]", "result": 16, "unit": "nM"}, {"measurement": "Kd", "setting": "[10]", "result": 19, "unit": "nM"}, {"measurement": "binding result", "setting": "[8]", "result": "no binding"}, {"measurement": "Kd", "setting": "[11]", "result": 19, "unit": "nM"}]}
{"binder": "B5", "values": [{"measurement": "Kd", "setting": "[12]", "result": 0.9, "unit": "nM"}, {"measurement": "binding result", "setting": "[8]", "result": "no binding"}]}
